Experimental data published in patent publication US20230212319A1, “NOVEL ANTIGEN BINDING DOMAINS AND SYNTHETIC ANTIGEN RECEPTORS INCORPORATING THE SAME” (University of Southern California, priority 2020, published 2023).

B1: 22007 (protein)
chain: MALPVTALLLPLALLLHAARPQLQLQESGPGLVKPSETLSLTCTVSGDSISSGDYYWGWIRQPPGKGLEWIGHIYYSGVTYYNPSLKSRVTISVDTSRNQFSLKLSSVTAADTAVYYCTREDSSNWRSRGQGTLVTVSSLEDLKNVFPPEVAVFEPSEAEISHTQKATLVCLATGFYPDHVELSWWVNGKEVHSGVCTDPQPLKEQPALNDSRYCLSSRLRVSATFWQNPRNHFRCQVQFYGLSENDEWTQDRAKPVTQIVSAEAWGRADCGFTSESYQQGVLSATILYEILLGKATLYAVLVSALVLMAMVKRKDSRGRAKRSGSGATNFSLLKQAGDVEENPGPTSMDWIWRILFLVGAATGAHSFEVQLVESGGGLVQPGGSLRLSCAASGFNIKDTCIGWVRRAPGKEEELVADICPYKGSTRYADSVKGRFTISADTSKNTAYLQMNSLRAEDTAVYYCAIVSARDGYYNYWGQGTTVTVSSTRIQNPDPAVYQLRDSKSSDKSVCLFTDFDSQTNVSQSKDSDVYITDKCVLDMRSMDFKSNSAVAWSNKSDFACANAFNNSIIPEDTFFPSPESSCDVKLVEKSFETDTNLNFQNLSVIGFRILLLKVAGFNLLMTLRLWSSRAKRSGSGVKQTLNFDLLKLAGDVESNPGPSRGHMTEYKPTVRLATRDDVPRAVRTLAAAFADYPATRHTVDPDRHIERVTELQELFLTRVGLDIGKVWVADDGAAVAVWTTPESVEAGAVFAEIGPRMAELSGSRLAAQQQMEGLLAPHRPKEPAWFLATVGVSPDHQGKGLGSAVVLPGVEAAERAGVPAFLETSAPRNLPFYERLGFTVTADVEVPEGPRTWCMTRKPGA
B2: 22093 (protein)
chain: MALPVTALLLPLALLLHAARPEVQLVESGGGLVQPGGSLRLSCAASGFNIKDTCIGWVRRAPGKEEELVAKICKYSGHTRYADSVKGRFTISADTSKNTAYLQMNSLRAEDTAVYYCAAVSVRDGHYNYWGQGTTVTVSSLEGKPIPNPLLGLDSTGSGEDLKNVFPPEVAVFEPSKAEIAHTQKATLVCLATGFYPDHVELSWWVNGKEVHSGVCTDPQPLKEQPALNDSRYCLSSRLRVSATFWQNPRNHFRCQVQFYGLSENDEWTQDRAKPVTQIVSAEAWGRADCGITSASYHQGVLSATILYEILLGKATLYAVLVSALVLMAMVKRKDSRGRAKRSGSGATNFSLLKQAGDVEENPGPTSTMALPVTALLLPLALLLHAARPDIQMTQSPSSLSASVGDRVTITCKASDHINNWLAWYQQKPGQAPKLLIYGATTLETGVPSRFSGSGSGTDYTLTISSLQPEDFATYYCQQSWNTPWTFGQGTKLEIKRGGGGSGGGGSGGGGSQVQLQQPGAELVKPGASVKMSCKASGYAFSSYWINWMKQKPGQGLEWIGQIYPGDGDTNYNGKFKGRATLTADTSSSTAYMQLSSLTSEDSAVYFCARSITTVVGCAMDYWGQGTSVTVSSTREQKLISEEDGSGIQNPDPAVYQLRDSKSSDKSVCLFTDFDSQTNVSQSKDSDVYITDKCVLDMRSMDFKSNSAVAWSNKSDFACANAFNNSIIPEDTFFPSSDVPCDVKLVEKSFETDTNLNFQNLSVIGFRILLLKVAGFNLLMTLRLWSSRAKRSGSGVKQTLNFDLLKLAGDVESNPGPSRGHMTEYKPTVRLATRDDVPRAVRTLAAAFADYPATRHTVDPDRHIERVTELQELFLTRVGLDIGKVWVADDGAAVAVWTTPESVEAGAVFAEIGPRMAELSGSRLAAQQQMEGLLAPHRPKEPAWFLATVGVSPDHQGKGLGSAVVLPGVEAAERAGVPAFLETSAPRNLPFYERLGFTVTADVEVPEGPRTWCMTRKPGA

Experiments:
Format in all cases: cell-based
RAJI cells = assay: JNG assay, co-culture with RAJI cells; conditions: JNG cells expressing construct, co-culture with Raji
Outline: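 Jurkat-NFAT-GFP (JNG) cells stably expressing SAR constructs via lentiviral transduction and puromycin/blasticidin selection were cocultured with target cells at E:T ~1:2 for ~4–18 h. NFAT-driven GFP was measured by FACS versus parental JNG cells; scores +/- to 5+ denote ~5–50% GFP-positive cells.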

LoVo = assay: JNG NFAT-GFP assay, co-culture with LoVo cells
Nalm6 cells = assay: JNG assay, co-culture with Nalm6 cells; conditions: co-culture with Nalm6
Outline: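 NFAT-driven GFP in stably SAR-transduced Jurkat cells after coculture (E:T ~1:2; ~4–18 h), measured by flow cytometry and expressed as % GFP+ cells over parental Jurkat-NFAT-GFP cells.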

Molecule	NFAT-GFP ASSAY: Raji (RAJI cells)	NFAT-GFP ASSAY: LoVo (LoVo)	NFAT-GFP ASSAY: Nalm6 (Nalm6 cells)
B1	+/- (refer to approximately 5%, 10%, 20%, 30%, 40% and 50% GFP positive cells)	+/- (refer to approximately 5%, 10%, 20%, 30%, 40% and 50% GFP positive cells)	
B2	2+ (refer to approximately 5%, 10%, 20%, 30%, 40% and 50% GFP positive cells)	+/- (refer to approximately 5%, 10%, 20%, 30%, 40% and 50% GFP positive cells)	+ (refer to approximately 5%, 10%, 20%, 30%, 40% and 50% GFP positive cells)
